# Laboratory results reported in the supplement of paper PMC9170038.
# System: K4 kissing-loop RNA reporter
# Test: apparent KD of K4 kissing-loop reporter; higher = weaker reporter binding
# Conditions: Eterna round: R107; input ligand: none
# Procedure: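 RNA-MaP round R107: designed RNA switches with theophylline, tryptophan, arginine or FMN aptamers are transcribed on-chip within common flanks. They are titrated with a labelled K4 kissing-loop RNA reporter in RNA-MaP buffer (100 mM Tris pH 7.5, 80 mM KCl, 4 mM MgCl2), without ligand or with the indicated ligand. Median apparent KD per design.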
# 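Further: bound reporter read as fluorescence of individual clusters on recovered sequencing chips by microscopy, with normalized cluster intensities fitted with a binding model.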
row,Sequence,apparent KD of K4 kissing-loop reporter [nM]
1,AUUAUAUUGUGAAGGAGCGCGCAUAGUAGUGAUGUUACUAUGACAUAUCUUAUUUAAUUCUCGCAGGUAGGUCGCACAUUAUAUA [JR_Nu_ExcArginiB_Sub026],79.7
2,UGAUACCAGACGGCCGCCACUCCCGCAGGUCAAAGACCUGCGAAGCUGGUUCUUCAGUGAUGUUGGAGGACCGGGUCUGGUAUCU [FiskerMod 24 - Jieux - Exclusion - Tryptophan B],266
3,AUUUAAUUAACUGAUACCAGACUUUAAGUAAUUAUUAAAACUAGUGAUGUUAGUUUAUCUGUCCCUUGGCAGCAGUUUCUACUUA [JR_Nu_ExcTheophyB_Sub020],158
4,UUGAGCCGGACGGAAGUCCGGCUCUGCGAGCGAGGACCGGUACGGCCGCCACUCGGUGCAGUGAUGUUGCAUGGCCGCAAGGCCG [#2 Exclusion - Tryptophan A Attempt #4 (HarryS)],301
5,UCGACUGUGUCGGCCGCCACUGGUAUAAACGGACUAUAACGACAUGAGUGAUGUUCAUGUUCGUCUAGGACCGGGACACAAUGUA [Tryp B Ex t3],96.7
6,AGGUUUUGAUUAGGAUAUGCACUGACGACGAGAAUAUAGUGAUGUUAUAUACUACGAAUUAGUAGAGUAGAAGGGAUUGAGGUUU [SSFMNB.Y],330
7,AAGUGAUGUUGUAGUGAUGUUGUGAUGUUGCAGGAUAUAUAGUGAUGUAGAAGGGUAUGUACUUAUUUGUUUUUUGAGUUAUGUU [zzazzrmullin],53.1
8,GUUUGCCGGUUCCGGAGUGAUGUUCCGGAUACCAGCAACUUCCUUUGCCCUUGGCAGCCGUAGCUAUACCGGAUGGCAGCUUCAG [Arrexean],89.3
9,GCGCGUCAUGUCAGCGGUGACACUGUCGAUACCAGCGCCGGAAGGCGCCCUUGGCAGCGACGUGCUGGAGUGAUGUUCCAGCGUC [#2 Exclusion - Theophylline A Attempt #21 (HarryS)],140
10,CACCAUGAAUUCUCUAGGAGUGAUGUUUUUCGAGGACCGGUACGGCCGCCACUCGGACGAGGACCCUGGGAGCGGCGAAGCGGCU [nigmullin],238
11,AGUCCACUCUAAAGAGUGGACCUAAGGGAUACCAGUGAUGUUGGUCACCCUUGGCAGCCCGCUGUCAUCGAUAAAGAUGGCAGGA,129
12,GCCUAGGCUCGAAAGAGCCUAGGCUUGUCUCAGGAUAUCUGGAAACAGAGAAGGGAGCUACUAGUGAUGUUAGGAAUUCCCUAAG,112
13,CAUUCACGGCGAGUCGAAGUGAUGUUUCGGCGAGGACCGGUACGGCCGCCACUCGGAUAAAUAUAGCUUAUCACAUACACUUUCG [theeternabot_exclusion_KL_Trp_A_27],140
14,AAAAUAAACCAGUGAUGUUGGUGUCCAGAUACCAGCGGUAAAAUCCGCCCUUGGCAGCUGUGGACGUACAAAAUAAGUACGUCCU [MatMod 4 - Jieux - Same State - Theophylline A],463
15,AACCGUGUGGCGGCCGCCACUAGUCUCCAGUGAUGUUGGAGAGACCACGUAAGUGGUCUCCAACAUAGGACCGGGCCAUAUGGAA [Same State - Tryptophan B (Freestyle 26)],106
16,AAGCAGUCAGGAUCGAAGAUCCUGCAAAACCGAGGACCGGUACGGCCGCCACUCGGAGUGAUGUUCCGAAGACUGCAAAAUAAAA [#SwitchBubble 6],213
17,GACUCUCUCGUCAGGAAGACGCACUCAGCCAAGGAUAUUAUGUUUUUAAGAAGGUGGACUUAUGCCAGUGAUGUUGGCAGAUACG [theeternabot_sameState_KL_FMN_A_29],67.6
18,AUAAUAUGAGUGAUGUUCAUGAAACCUGAAGGAGCGGACGAAAGUCCAGGUAGGUCGCAGGACUCCUUCAACAUGGGAGAGGGAG [KL-SSArg-A8 #analogue],166
19,AAAGACUGACUGCAAUUAGCAGUCAGUCAACGAGGACCGGUACGGCCGCCACUCGGGUCCUAGAGUGAUGUUCUAAUAAUAUAAA [AK1.2 SS Tryptophan A],319
20,UGUCAUUGGUCUGAUACCAGUACCCUUGGCAGCCGAGGAGUGAUGUUCCAAGGAUACCAGUACCCUUGGCAGCAGACCGAUGACU [TheoBS 30 #DoubleAptamer #SwitchBubble],186
21,UUAGGAGAGGGAAGGAGCGUGAAAGAGAAAGAAUAUAGUGAUGUUAUAUAGAAGAAAGAAUCACAGGUAGGUCGCCCGGAGGAGG [SSArgB.C],632

# Same assay, conditions: Eterna round: R107; input ligand: theophylline 20 uM
row,Sequence,apparent KD of K4 kissing-loop reporter [nM]
1,AAAAGCAGAAAGACGCAUUAAAGAACCGAAGGAGCGCGGAAUUACGCAGGUAGGUCGCGGGAUAAGCGAGUGAUGUUCGCGAAAG [Arginine A Same State; Euphoria Solution],89.5
2,GGAGCAGGUGAAGGAUAUCCCGGGCCAGAGUGAUGUUCUGGAUCCCUUGCCGUUUCUAAACGGGUGGGAGAAGGUCACUGAUAAG [Bibimati],180
3,UAUGCUUGUGCUGAUACCAGUGUUAGUGAUGUUAGGACUGUCAGUAGGAUGCGUGCAUUUCACCCUUGGCAGCAGUAUCGCAGCA [theeternabot_exclusion_KL_Theo_B_48],426
4,GUUGACAGACUGCAAAACUAGUCAACAGACUAGGAUAUCAGGAAACUGAGAAGGAGUCAAGUUGCAGUGAUGUUGCAAGAAUAAU [KL-SSFMN-A27],214
5,AUAGCUGAUAGCAGUGAUGUUGCUUCAGAUACCAGACGAGAUCAUGUCCCUUGGCAGCUGACAUGGCAAGUGCUAGGUUAGAUGA [#11 K4 Theophylline A Exclusion],120
6,AACUGUCAAGGACAACAUUACUGCAGUGAUACCAGCAUCGAAAGAUGCCCUUGGCAGCACUAACUUGCAGUGAUGUUGCAAGUAA [BrourdMod 4 - Jieux - Exclusion - Theophylline A],225
7,GUUAAUAGUAGUGAUGUUACAAUAGUUUGUGAGGAUAUCCCGAAAGGGAGAAGGCACAAACAAAUAGAUUCUCACAAAUAUUUAC [FMN A exclusion],238
8,CGCGUACAGUGUUCUACGGCCGAGAGUGAUACCAGCCGUAUUUGUGGCCCUUGGCAGCGCAGAUGCAGUGAUGUUGCAUACUUGG [Same State Theophylline A GF 21],149
9,GCGUGGCAGGCGGCCGCCACUCGGACGAGUCACAGUGAUGUUGUGGUUUGCCAGUCGUCUUCAUCGAGGACCGGGUUUGUUGCGC [Exclusion Tryptophan B GF 18],159
10,UUUGGUUUCUCGGCCGCCACUCGUUGGUAAUGGGCCUCAGGGAUAUAGUGAUGUUAUGUAAAGAAGAGGACCGGGAGAAGGAAGG [ExTryptoB.Dn],267
11,AAUAAAAUCACGGCCGCCACUGAUUUCCGUAUUAGGAGUGAUGUUCCUAUGACUAUAUAAUUUAACAGGACCGGGUGAAUAUUUA [#21 K4 Tryptophan B Exclusion],107
12,UGGUUUAACUGAAGGAGCGGCAAUUGAUAAGUAGAUAUAGUGAUGUUAUAUAAGAUAGAGAGCCAGGUAGGUCGCAGAGGUAUUU [ExArgB.P],248
13,UAUGUACACGGGUAGUGAUACAUCGAGGAAGGAGCGUGCGCAGGCACAGGUAGGUCGCCUCAGCGCACGAGUGAUGUUCGUGGGC [Veti],380
14,AAGCAGUCACUCGAAGCCAUCGAAGAUGGGCGAGGACCGGUACGGCCGCCACUCGGAGUGAUGUUCCGAAGACUGCAAAAUAAAA,508
15,CUUCGAUUAACAGAUACCAGUCACUUGGGAGCCACACACAAGUGAGUGAUGUUCACUUGUGACCCUUGGCAGCUGUUAGUCGAAG [#04 K4 Theophylline B Exclusion],127
16,CAGAUGUAGGCGGCCGCCACUCUCAUUACCGUACGCAAGUAUGAUUAGAAGUGAUGUUUCUCGGUGAGGACCGGGCCAUUCCCGA [theeternabot_sameState_KL_Trp_B_27],672

row,Sequence,apparent KD of K4 kissing-loop reporter [nM]
1,GCCGUAGAUGGAAGGAGCGUGGUUAAUGUAAGUGAUGUUUACGAGGUCAACAAUUGACCGCCACAGGUAGGUCGCCAUCUACGGC,53.1
2,AUUUUUUUAUCAGGAUAUUAGUGUUGGUUUGUUUUGUUAGUGAUGUUGAUAUUUGUUUUAUGUAUUUAAGAAGGGAUUGAGAUGU [huupullin],395
3,UGAUACCAGACGGCCGCCACUGCACCAGUCAAUGACUGAGUGUGGUAAUGCUCAGUGAUGUUGAGUAGGACCGGGUCUGGUAUCU [Mod of Eli's TrypBX 8 v2],114
4,AGAUUCGACACGGCCGCCACUUCCAGUGGCUGGUGUCAUGGUGCGCGUGAGUGAUGUUUAUGUGGAAGGACCGGGUGUUGAGUCU [KL-XTryp-B1 #analogue],606
5,GUAGCACUUGAUAGUGAUGUUAUCAAGGGCAAGGAUAUCAUCUCAAUGAGAAGGUGUCCUUGAUAACUGCUACGGGAAUAUCCCA [Omei KL FMN A Exc D v6],86
6,AUUAUAUUGUGAAGGAGCGCGCAUAGUAGUGAUGUUACUAUGACAUAUCUUAUUUAAUUCUCGCAGGUAGGUCGCACAUUAUAUA [JR_Nu_ExcArginiB_Sub026],65.5
7,UGAUACCAGACGGCCGCCACUCCCGCAGGUCAAAGACCUGCGAAGCUGGUUCUUCAGUGAUGUUGGAGGACCGGGUCUGGUAUCU [FiskerMod 24 - Jieux - Exclusion - Tryptophan B],263
8,AUUUAAUUAACUGAUACCAGACUUUAAGUAAUUAUUAAAACUAGUGAUGUUAGUUUAUCUGUCCCUUGGCAGCAGUUUCUACUUA [JR_Nu_ExcTheophyB_Sub020],135
9,UUGAGCCGGACGGAAGUCCGGCUCUGCGAGCGAGGACCGGUACGGCCGCCACUCGGUGCAGUGAUGUUGCAUGGCCGCAAGGCCG [#2 Exclusion - Tryptophan A Attempt #4 (HarryS)],208
10,UCGACUGUGUCGGCCGCCACUGGUAUAAACGGACUAUAACGACAUGAGUGAUGUUCAUGUUCGUCUAGGACCGGGACACAAUGUA [Tryp B Ex t3],81.7
11,AGGUUUUGAUUAGGAUAUGCACUGACGACGAGAAUAUAGUGAUGUUAUAUACUACGAAUUAGUAGAGUAGAAGGGAUUGAGGUUU [SSFMNB.Y],322
12,AAGUGAUGUUGUAGUGAUGUUGUGAUGUUGCAGGAUAUAUAGUGAUGUAGAAGGGUAUGUACUUAUUUGUUUUUUGAGUUAUGUU [zzazzrmullin],41
13,GUUUGCCGGUUCCGGAGUGAUGUUCCGGAUACCAGCAACUUCCUUUGCCCUUGGCAGCCGUAGCUAUACCGGAUGGCAGCUUCAG [Arrexean],86.7
14,GCGCGUCAUGUCAGCGGUGACACUGUCGAUACCAGCGCCGGAAGGCGCCCUUGGCAGCGACGUGCUGGAGUGAUGUUCCAGCGUC [#2 Exclusion - Theophylline A Attempt #21 (HarryS)],130
15,CACCAUGAAUUCUCUAGGAGUGAUGUUUUUCGAGGACCGGUACGGCCGCCACUCGGACGAGGACCCUGGGAGCGGCGAAGCGGCU [nigmullin],246
